Assay results: patent US20030157688A1 (Scripps Research, published 2003)

T1: wild-type adenovirus type 5 (Ad5) fiber protein (human adenovirus type 5, UniProt P11818 1-581)
T1 construct: also called type 5 fiber protein; recombinant Ad5 fiber
T1 sequence: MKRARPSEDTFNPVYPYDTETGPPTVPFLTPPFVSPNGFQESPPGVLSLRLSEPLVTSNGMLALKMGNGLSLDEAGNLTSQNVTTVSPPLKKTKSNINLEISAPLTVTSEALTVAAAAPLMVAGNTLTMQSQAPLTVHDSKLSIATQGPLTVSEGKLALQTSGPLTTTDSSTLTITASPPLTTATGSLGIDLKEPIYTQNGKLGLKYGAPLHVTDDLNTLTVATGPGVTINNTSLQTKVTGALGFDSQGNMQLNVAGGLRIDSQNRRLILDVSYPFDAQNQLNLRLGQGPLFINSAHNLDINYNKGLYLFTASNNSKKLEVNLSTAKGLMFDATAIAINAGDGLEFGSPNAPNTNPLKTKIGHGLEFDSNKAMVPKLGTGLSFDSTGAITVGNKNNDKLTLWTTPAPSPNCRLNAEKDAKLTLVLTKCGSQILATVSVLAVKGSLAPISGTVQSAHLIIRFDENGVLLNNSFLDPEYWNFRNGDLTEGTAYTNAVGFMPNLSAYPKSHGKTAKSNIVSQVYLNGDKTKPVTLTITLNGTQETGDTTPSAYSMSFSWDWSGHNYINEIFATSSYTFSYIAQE

B1: chimeric 5T3H fiber protein (Ad5 fiber tail and shaft with the Ad3 fiber knob) (other)
chain: MKRARPSEDTFNPVYPYDTETGPPTVPFLTPPFVSPNGFQESPPGVLSLRLSEPLVTSNGMLALKMGNGLSLDEAGNLTSQNVTTVSPPLKKTKSNINLEISAPLTVTSEALTVAAAAPLMVAGNTLTMQSQAPLTVHDSKLSIATQGPLTVSEGKLALQTSGPLTTTDSSTLTITASPPLTTATGSLGIDLKEPIYTQNGKLGLKYGAPLHVTDDLNTLTVATGPGVTINNTSLQTKVTGALGFDSQGNMQLNVAGGLRIDSQNRRLILDVSYPFDAQNQLNLRLGQGPLFINSAHNLDINYNKGLYLFTASNNSKKLEVNLSTAKGLMFDATAIAINAGDGLEFGSPNAPNTNPLKTKIGHGLEFDSNKAMVPKLGTGLSFDSTGAITVGNKNNDKLTLWTGPKPEANCIIEYGKQNPDSKLTLILVKNGGIVNGYVTLMGASDYVNTLFKNKNVSINVELYFDATGHILPDSSSLKTDLELKYKQTADFSARGFMPSTTAYPFVLPNAGTHNENYIFGQCYYKASDGALFPLEVTVMLNKRLPDSRTSYVMTFLWSLNAGLAPETTQATLITSPFTFSYIREDD
B2: Ad5 penton base protein (in the capsid of Ad5.βgal.ΔF / Ad5 vector particles) (other)
chain: MRRAAMYEEGPPPSYESVVSAAPVAAALGSPFDAPLDPPFVPPRYLRPTGGRNSIRYSELAPLFDTTRVYLVDNKSTDVASLNYQNDHSNFLTTVIQNNDYSPGEASTQTINLDDRSHWGGDLKTILHTNMPNVNEFMFTNKFKARVMVSRLPTKDNQVELKYEWVEFTLPEGNYSETMTIDLMNNAIVEHYLKVGRQNGVLESDIGVKFDTRNFRLGFDPVTGLVMPGVYTNEAFHPDIILLPGCGVDFTHSRLSNLLGIRKRQPFQEGFRITYDDLEGGNIPALLDVDAYQASLKDDTEQGGGGAGGSNSSGSGAEENSNAAAAAMQPVEDMNDHAIRGDTFATRAEEKRAEAEAAAEAAAPAAQPEVEKPQKKPVIKPLTEDSKKRSYNLISNDSTFTQYRSWYLAYNYGDPQTGIRSWTLLCTPDVTCGSEQVYWSLPDMMQDPVTFRSTRQISNFPVVGAELLPVHSKSFYNDQAVYSQLIRQFTSLTHVFNRFPENQILARPPAPTITTVSENVPALTDHGTLPLRNSIGGVQRVTITDARRRTCPYVYKALGIVSPRVLSSRTF
notes: The assays used whole virions; also called fiberless adenovector (penton base at the vertices)

How the values were obtained:
[1] = target: Ad3 receptor; assay: cell-based or functional assay
[2] = target: B1; assay: fiber-deleted vector grown in 644 cells
[3] = target: T1, wild-type adenovirus type 5 (Ad5) fiber …; assay: Western blot of particles purified from 633 cells

Row | Binder | infection of EBV-transformed lymphoblastoid cell lines (X-gal stained cells) [1] [fold] | binding result [2] | binding result [3]
1 | B1 | ≥ 10 | – | –
2 | B2 | – | binds | binds
